# Measured values from US20040014036.
# Experiments:
# [1] = tested on: Gal4 full length (Saccharomyces cerevisiae); experiment: cell_activity; conditions: yeast lacZ reporter, 5x17mer; activation dependent on Gal4 sites stated for the peptide activators
# [2] = tested on: Gal4(1-100)-LS201 (Saccharomyces cerevisiae); experiment: cell_activity; conditions: yeast JPY9:RJR227 lacZ reporter; activation dependent on Gal4 sites (p75)
substance,measurement,setting,value
"GAL4 consensus 17mer sites (five, reporter pRJR227)",activity (beta-gal units),[1],2350
same,activity (beta-gal units),[2],5290
